Measured values as given in the supplement of paper PMC9170038.

System: MS2 coat protein
Assay: apparent KD of MS2 coat protein; designed switch direction (-1 OFF switch, 1 ON switch): 1; higher = weaker reporter binding
Summary of the method: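 On Illumina chips, designed RNA switches with common flanks were made by stalled E. coli RNA polymerase. Titrations with SNAP-549-labelled MS2 coat protein, doubling from 0.7 or 1.5 nM to 3 µM, were done with no input, with 200 uM small-molecule ligand, or with an oligonucleotide input. Apparent KD is the median per design over clusters, from curve fits of normalised cluster fluorescence.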

[1] = input ligand: microRNA oligo, concentration not stated
[2] = Eterna round: R95, input ligand: FMN 200 uM
[3] = Eterna round: R95, input ligand: microRNA oligo, concentration not stated
[4] = Eterna round: R95, input ligand: none

Sequence	apparent KD of MS2 coat protein (input ligand: FMN 200 uM)	apparent KD of MS2 coat protein [1]	apparent KD of MS2 coat protein (input ligand: none)	apparent KD of MS2 coat protein [2]	apparent KD of MS2 coat protein [3]	apparent KD of MS2 coat protein [4]
GUAAUAAUGUAAGGAUAUACAUGAGGAUUUCUCGUAGAAGGUACAAGACAUGAGGAUCACCCAUGUGUCGCUCAGAAGAGCGUA [Mat - Same State NG 1 - JL mod - D16] (Eterna round: R96, puzzle: Same State NG 1)	279 nM	158 nM	463 nM	–	–	–
CGUAGGUAGCUGGAGGAUAUUCGAGUGGUAACAUGAGGAUCACCCAUGUGGUGAGAGGAACAUGAGGAGAAGGCUAGCUGCCUGC [JL-ss2-3.15 JL mod] (Eterna round: R96, puzzle: Same State 2)	1290 nM	925 nM	906 nM	–	–	–
AACAAUCUAUCUGAGGAUAUCAUGAUAUAAACAUGAGGAUCACCCAUGUGCAGGAAAACUGCAUAUGAGAAGGCAGAUAGAUUGA [salish99_ss2_r3_031] (puzzle: Same State 2)	–	–	–	43 nM	232 nM	118 nM
GGUGCAAUUAACGCCUACAUGAGGAUCACCCAUGUAUGUAGGCAGGAUAUCGUUUGCAAAGCAAACGAGAAGGGCUAUAGUACC [Mat - Same State NG 3 - JL Mod - D43] (Eterna round: R96, puzzle: Same State NG 3)	66.9 nM	256 nM	188 nM	–	–	–
UGGUACAUGGGAGGAUAUCUCAUGGUGACAUGAGGAUCACCCAUGUAGUUGGAGCCGAAAGGCUGAGAGAAGGCCCAUGUACCU [JL SSNG1 3.75] (Eterna round: R96, puzzle: Same State NG 2)	59.4 nM	98 nM	78.5 nM	–	–	–
GGAAUAUGAUGUUACAUGAGGAUCACCCAUGUAGUAAUAACUAAGGAUAUCUGAGGAGGAGGAGAAGAGAAGGUAGGAUCAUAA [AK SSNG3-V2-10] (Eterna round: R96, puzzle: Same State NG 3)	23.8 nM	22.2 nM	33.2 nM	–	–	–
GAGAGAGGGUGAGGAUAUUGAGUAAUAAUGAUACAAGAAGGCACAGACAUGAGGAUCACCCAUGUGGGAAUAAUCCAGAGAGAG [Parity 6 - Jieux - Same State NG 1] (Eterna round: R96, puzzle: Same State NG 1)	262 nM	153 nM	289 nM	–	–	–
GAAUAGUUGAGAGGAUAUGUAUUAUUGUAGGAUACAGAAGGUUUUAACAUGAGGAUCACCCAUGUAGGACUAUAUAUGUGAAUA [Parity 98 - Jieux - Same State NG 1] (Eterna round: R96, puzzle: Same State NG 1)	–	11.7 nM	–	–	–	–
CUAGCGCAUGCAGGAUAUCUGGUGUAUGCCUCGAGAUAACAUGAGGAUCACCCAUGUCCGCUCAAAGAGAAGGGCAUGCAAAUG [Eternabot solution 8] (Eterna round: R96, puzzle: Same State NG 2)	1180 nM	177 nM	618 nM	–	–	–
UUGAAGACGGACAAGGAUAUGUCAAAGGAAACAUGAGGAUCACCCAUGUGGAGAUUGGAGAAGAAACAGAAGGUGUACGGAGAGA [JR_SS2_Sub008] (puzzle: Same State 2)	–	–	–	27.5 nM	13.6 nM	21.4 nM
GGUCGGACUCACAUGAGGAUCACCCAUGUUGCGGAAACGCGACAGGAUAUCUGUCCGAAAAGGUCAGAGAAGGGUCAACCGACC [Fiskers NG3ss - 58] (Eterna round: R96, puzzle: Same State NG 3)	853 nM	431 nM	504 nM	–	–	–
AUAAAACAUGAGGAUCACCCAUGUCAACAAAGUCGAGGAUAUGGGCAAAUAAAAUAAGAACCAGAAGGCGAUUAAU [salish99_ss1_r3_035] (puzzle: Same State 1)	–	–	–	23.4 nM	97.3 nM	99 nM
GUGGUCCUCACAGGAUAUCAGCGGCCUUCACGCUGAGAAGGGUGACUGGGCUACAAGGCUAUAGACAUGAGGAUCACCCAUGUA [Direbe] (Eterna round: R96, puzzle: Same State NG 1)	194 nM	110 nM	194 nM	–	–	–
GAAAGAGGAAGCGAGGAUAUCGUGAAGAGUACAUGAGGAUCACCCAUGUUGUAGGUAAAGGUAGGCGAGAAGGCGCAGGAGAAGA [JR_SS2_Sub0102] (puzzle: Same State 2)	–	–	–	23.9 nM	23.7 nM	33.2 nM
UUAAGCCACGGGCAGGAUAUGUGUUAAAAUACAUGAGGAUCACCCAUGUGCAGGUGUAACACCUGACAGAAGGGCCAAUCGCGGC [Soondi - 2] (puzzle: Same State 2)	–	–	–	23.7 nM	43 nM	56.4 nM
GCCGACUAAUGAGGAUAUGGCACCUUAUUGGUGCCAGAAGGCAUGUCAAUUGACAUGAGGAUCACCCAUGUAUUAUAGUUGGCG [salish99_SSNG1_r04_602] (Eterna round: R96, puzzle: Same State NG 1)	96.5 nM	177 nM	449 nM	–	–	–
AGCUAUCGAAAACGAUAGCAAAAGUAUGUACAUGAGGAUCACCCAUGUCAUGUACAAGCUUUUUGCUCGUCUUAAAA [Zipper 23 - 10] (puzzle: Sensor for hsa-mir-208a)	–	–	–	664 nM	19.6 nM	638 nM
UGGAUCUAGGCUUGCCUGGGUCCAUGUUGACAUGAGGAUCACCCAUGUGUAUUUUAUAAGCUUUUUGUUUGUCAACA [JL A Humble Attempt mod 7] (puzzle: Sensor for hsa-mir-208a)	–	–	–	37 nM	–	37.6 nM
AUACAUGAGGAUCACCCAUGUAAUUAAUUAACUUGUAAGAUCAAGGAUAUCAGCUCGAUUAGAGCUGAGAAGGUGAUCACAUGU [SSNG3/21-C2] (Eterna round: R96, puzzle: Same State NG 3)	–	116 nM	–	–	–	–
ACUUGCUUUUUGCUCGUAUAUUGUCCGUUACAUGAGGAUCACCCAUGUGUAUAUUAUGUGUUGUUUUUGAUACGUGU [JR_SHM208A_Sub069] (puzzle: Sensor for hsa-mir-208a)	–	–	–	36.2 nM	33.9 nM	43.7 nM
CGCGGCAAGGAAGGAUAUGGGACGAAAACGUACCUAGAAGGUCCACAUGAGGAUCACCCAUGUACCAAGAAAACCGCUAAAUUA [Atceorer] (Eterna round: R96, puzzle: Same State NG 1)	70.7 nM	177 nM	207 nM	–	–	–
CUGAGCGAUCGAGGAUAUCACGUCGAUUAGACGUGAGAAGGCGAUCAUAACAUGAGGAUCACCCAUGUAUUACAUGAAGCUCAG [SSNG1/4-A2] (Eterna round: R96, puzzle: Same State NG 1)	17.1 nM	12.9 nM	15.8 nM	–	–	–
GCGGAGAGGUAAGGAUAUCCAUGGAAGACACAUGAGGAUCACCCAUGUGGGAGGGAAACCAGGAGGGAGAAGGUACCGGGACGC [AK SSNG2-V2-21] (Eterna round: R96, puzzle: Same State NG 2)	11.5 nM	10.4 nM	13.2 nM	–	–	–
